Measured values reported in patent US20240166738A1 (Alector, published 2024).
Positions count from the first letter of the chain named.

B1: TM-77 (antibody, V domains shown)
VH: QIQLQQSGAELVRPGASVKLSCKASGYTFTDYEMHWVKQTPVHGLEWIGVIDPETGGTAYNQMFKGKATLTADKSSSTAYMDLRSLTSEDSAVYYCVKYGIEGYWGQGTTLTVSS
VL: DVVMTQIPLTLSVTLGQPASISCKSSQSLFHSNGKTYLNWLLQRPGQSPKLLIYMVSKLESGVPDRFSGSGSGTDFTLKISRVEAEDLGVYYCLQVTHFPLTFGAGTKLELK
B2: TM-46 (antibody, V domains shown)
VH: QVQLQQSGADLVKPGASVKISCKASGYAFSSFWMNWVKLRPGKGLEWIGQIYPGDGDTDYNGKFKDKATLTADTSSNTAYMQLSRLTSEDSAVYFCARGDGFSYFDYWGQGTILTVSS
VL: QIVLTQSPVIMSASPGERVTMTCCASSRVNYMHWYQQKSGSYPKRWIYDTSKLASGVPGRFSGSGSGTSYSLTISSMEAEDAATYYCQQWSSNPPTFGGGTKLEIK
B3: TM-79 (antibody, V domains shown)
VH: EVQLQQSGPELVKPGASVKMSCKASGYTFTNYVMHWLKQKPGQGLEWIAHITPHNDGTKYNEKFKGKATLTSDRSSSTAYMELNSLTSEDSAIYYCARSGQFGRGDYFHYWGQGTTVTVSS
VL: DIVLTQSPASLAVSLGQRATISCRASKSVSTSGSIYIHWYQQKPGQPPKLLIYLTSNLESGVPARFSGSGSGTDFTLNIHPVEEEDAATYYCQHSGELPWTFGGGARLEIK
B4: TM-26 (antibody, V domains shown)
VH: QVQLQQSGAELIRPGTSVKVSCKASGYAFTNYLIEWVKKRPGQGLEWIGVINPGSGITNYNEKFKGKATLTADKSSSTAYMQLSSLTSEDSAVYFCARSDFITTVVADYWGQGTTVTVSS
VL: DIVVTQTPLSLPVSFGDQVSISCRSSQSLTNYYGNTYLSWYLHKPGQSPQLLIYGISNRFSGVPDRFSGSGSGTDFTLKISTIKPEDLGMYYCLQGTHQPRTFGGGTKLEIK
B5: TM-83 (antibody, V domains shown)
VH: QVQLQQPGTELVKPGALVKLSCKASGYTFTTYWIHWVKQRPGQGLEWIGNINPSNGNTKNNERFKTKATLTVDKSSSTAYMQLSSLTSEDSAVYYCVRGDYYGTSYPFWGQGTLVTVSS
VL: DVVMTQTPLSLPVSLGDQASISCRSSQSLVHSNGITYLHWYLQKPGQSPKLLIYKVSNRFSGVPDRFSGSGSGTDFTLKISRVEAEDLGVYFCSQSTHVPYTFGGGTKLEIK
B6: TM-39 (antibody, V domains shown)
VH: HVQRQQSGTELAKPGASVKLSCKTSGYTFTDYWMHWIKQRPGQGLEWIGFINPSSGYTKYNQNFKDKATLTADKSSSTAYMQLSSLTYEDSAVFYCAREAGSISDWYFDVWGTGTTVTVSS
VL: DIVMTQAAPSIPVTPGESVSISCRSSKTLLNSNGNTYLYWFLQRPGQPPQLLIYRMSNLASGVPDRFSGSGSGTAFTLRISRVEAEDVGVYYCMQHLDYPYTFGGGTQLEIK
B7: TM-19 (antibody, V domains shown)
VH: DVQLQQSGAELVRPGASVKLSCTASGFNIKDYYMYWVKQRPEQGLEWIGRIDPEDGDTENAPKFRGMATMTADTSSNTAYLQLNSLTSEDTAVYYCTTRIGNLYHVMDYWGHGTSVTVSS
VL: DVLMTQTPLSLPVSLGDQASISCRSSQSIVHSNGNTYLEWYLQKPGQAPKLLIDKVFNRFSGVPDRFSGSGSGTDFTLKISRVEAEDLGVYYCFQGSHVPFTFGSGTKLEIK
B8: TM-22 (antibody, V domains shown)
VH: QVQLQQSGPELVKPGASVKISCKASGYRFTSYYIHWVKQRPGQGLEWIGWIYPGNGITNYNEKFKGKATLTADTSSSTAYMQLSSLTSEDSAVYYCASPYYGIRNCYFDVWGTGTTVTVSS
VL: B7 VL with Q18H, S26G, A48S, D54Y, F57S, V90I, F101W, S105G

Target: human TMEM106B (human, UniProt Q9NUM4 2-274)
Assay: cell-based or functional assay
Also: test concentration or dose not given here.

Binder | % Protection from CPE
B1 | 4.7%
B2 | 4.7%
B3 | 4.5%
B4 | 4.3%
B5 | 4.3%
B6 | 4.2%
B7 | 99.8%
B8 | 4.4%
